# From the supplement of paper PMC10567573
# B1: CASP6 (parent)
# chain: TCADRDNLTRRFSDLGFEVKCFND
# B2: KCNA4 (parent)
# chain: YQLGEEALLKFREDEGFVREEEDR
# Variants of: B1
# Assay: protein stability index of a GFP-peptide fusion (GPS, HEK-293T) (PSI 1-6); higher = more stable
# Conditions: c terminus: a fixed tail appended
# 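Further: lentivirally expressed fusions sorted by FACS into six bins by GFP to DsRed ratio, PSI derived from sequencing read proportions per bin multiplied by bin number.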
row,Variant,protein stability index
1,CCADRDNLTRRFSDLGFEVKCFND,2.88
2,VCADRDNLTRRFSDLGFEVKCFND,2.92
3,MCADRDNLTRRFSDLGFEVKCFND,3.58
4,NCADRDNLTRRFSDLGFEVKCFND,3.03
5,LCADRDNLTRRFSDLGFEVKCFND,3.1
6,QCADRDNLTRRFSDLGFEVKCFND,4.05
7,SCADRDNLTRRFSDLGFEVKCFND,3.28
8,PCADRDNLTRRFSDLGFEVKCFND,3.67
9,GCADRDNLTRRFSDLGFEVKCFND,3.2
10,HCADRDNLTRRFSDLGFEVKCFND,3.37
11,RCADRDNLTRRFSDLGFEVKCFND,3.06
12,ICADRDNLTRRFSDLGFEVKCFND,2.73
13,WCADRDNLTRRFSDLGFEVKCFND,2.32
14,YCADRDNLTRRFSDLGFEVKCFND,2.15
15,DCADRDNLTRRFSDLGFEVKCFND,4.37
16,FCADRDNLTRRFSDLGFEVKCFND,2.18
17,KCADRDNLTRRFSDLGFEVKCFND,3.07
18,ECADRDNLTRRFSDLGFEVKCFND,3.74
19,ACADRDNLTRRFSDLGFEVKCFND,3.73

row,Variant,protein stability index
1,TGADRDNLTRRFSDLGFEVKCFND,3.47
2,TFADRDNLTRRFSDLGFEVKCFND,3.16
3,TSADRDNLTRRFSDLGFEVKCFND,3.88
4,THADRDNLTRRFSDLGFEVKCFND,3.71
5,TIADRDNLTRRFSDLGFEVKCFND,3.35
6,TVADRDNLTRRFSDLGFEVKCFND,3.93
7,TEADRDNLTRRFSDLGFEVKCFND,4.84
8,TQADRDNLTRRFSDLGFEVKCFND,3.43
9,TNADRDNLTRRFSDLGFEVKCFND,4.32
10,TWADRDNLTRRFSDLGFEVKCFND,2.36
11,TTADRDNLTRRFSDLGFEVKCFND,3.54
12,TDADRDNLTRRFSDLGFEVKCFND,3.81
13,TPADRDNLTRRFSDLGFEVKCFND,4.04
14,TRADRDNLTRRFSDLGFEVKCFND,3.74
15,TKADRDNLTRRFSDLGFEVKCFND,3.51
16,TYADRDNLTRRFSDLGFEVKCFND,3.23
17,TMADRDNLTRRFSDLGFEVKCFND,3.38
18,TAADRDNLTRRFSDLGFEVKCFND,4.04
19,TLADRDNLTRRFSDLGFEVKCFND,3.25

# Variants of: B2
# Assay: as above
# Conditions: c terminus: a fixed tail appended
row,Variant,protein stability index
1,YQLGEEALLKNREDEGFVREEEDR,5.75
2,YQLGEEALLKMREDEGFVREEEDR,4.44
3,YQLGEEALLKRREDEGFVREEEDR,5.8
4,YQLGEEALLKAREDEGFVREEEDR,4.72
5,YQLGEEALLKLREDEGFVREEEDR,5.38
6,YQLGEEALLKSREDEGFVREEEDR,5.44
7,YQLGEEALLKYREDEGFVREEEDR,5.46
8,YQLGEEALLKGREDEGFVREEEDR,5.61
9,YQLGEEALLKEREDEGFVREEEDR,5.67
10,YQLGEEALLKFDEDEGFVREEEDR,5.54
11,YQLGEEALLKFSEDEGFVREEEDR,4.66
12,YQLGEEALLKFVEDEGFVREEEDR,3.81
13,YQLGEEALLKFFEDEGFVREEEDR,4.62
14,YQLGEEALLKFEEDEGFVREEEDR,5.21
15,YQLGEEALLKFREDEGFVREHEDR,4.18
16,YQLGEEALLKFREDEGFVRECEDR,3.71
17,YQLGEEALLKFREDEGFVREQEDR,4.21
18,YQLGEEALLKFREDEGFVREKEDR,4.08
19,YQLGEEALLKFREDEGFVREWEDR,3.5
20,YQLGEEALLKFREDEGFVREDEDR,4.4
21,YQLGIEALLKFREDEGFVREEEDR,3.55
22,YQLGDEALLKFREDEGFVREEEDR,4.97
23,YQLGYEALLKFREDEGFVREEEDR,3.21
24,YQLGPEALLKFREDEGFVREEEDR,4.11
25,YQLGQEALLKFREDEGFVREEEDR,3.92

row,Variant,protein stability index
1,YQLGTEALLKFREDEGFVREEEDR,4.2
2,YQLGKEALLKFREDEGFVREEEDR,3.3
3,YPLGEEALLKFREDEGFVREEEDR,5.15
4,YELGEEALLKFREDEGFVREEEDR,5.37
5,YRLGEEALLKFREDEGFVREEEDR,5.09
6,YFLGEEALLKFREDEGFVREEEDR,4.15
7,YQLGEEALLKFREDEGFVREEEDQ,4.71
8,YQLGEEALLKFREDEGFVREEEDD,4.71
9,YQLGEEALLKFREDEGFVREEEDE,5.1
10,YQLGEEALLKFREDEGFVREEEDS,4.65
11,YQLGEEALLKFREDEGFVREEEDV,4.73
12,YQLGEEALLKFREDEGFVREEEDL,4.54
13,YQLGEEALLKFREDMGFVREEEDR,3.96
14,YQLGEEALLKFREDDGFVREEEDR,4.15
15,YQLGEEALLKFREDYGFVREEEDR,4.3
16,YQLGEEALLKFREDAGFVREEEDR,3.83
17,YQLGEEALLKFREDVGFVREEEDR,3.8
18,YQLGEEALLKFREDLGFVREEEDR,3.88
19,YQLGEEALLKFREDHGFVREEEDR,3.87
20,YQLGEEALLKFREDQGFVREEEDR,4.4
21,YQLGEEALLKFREDWGFVREEEDR,3.84
22,YQLGEEALLKFREDEGFVREEEWR,3.51
23,YQLGEEALLKFREDEGFVREEEAR,4.28
24,YQLGEEALLKFREDEGFVREEEER,4.75
25,YQLGEEALLKFREDEGFVREEELR,3.97

row,Variant,protein stability index
1,YQLGEEALLKFREDEGFVREEEFR,4.14
2,YQLGEEAILKFREDEGFVREEEDR,5.21
3,YQLGEEATLKFREDEGFVREEEDR,4.88
4,YQLGEEAPLKFREDEGFVREEEDR,5.13
5,YQLGEEALVKFREDEGFVREEEDR,5.15
6,YQLGEEALRKFREDEGFVREEEDR,4.41
7,YQLGEEALGKFREDEGFVREEEDR,5.03
8,YQLGEEALTKFREDEGFVREEEDR,5.15
9,YQLGEAALLKFREDEGFVREEEDR,4.31
10,YQLGEGALLKFREDEGFVREEEDR,4.32
11,YQLGEMALLKFREDEGFVREEEDR,3.99
12,YQLGEQALLKFREDEGFVREEEDR,4.23
13,YQLGEHALLKFREDEGFVREEEDR,4.33
14,YQLGERALLKFREDEGFVREEEDR,3.46
15,YQLGEYALLKFREDEGFVREEEDR,3.04
16,YQLGEPALLKFREDEGFVREEEDR,4.92
17,YQLGEWALLKFREDEGFVREEEDR,1.97
18,YQLGEEALLKFREDEGFVWEEEDR,4.4
19,YQLGEEALLKFREDEGFVEEEEDR,4.91
20,YQLGEEALLKFREDEGFVNEEEDR,4.47
21,YQLGEEALLKFREDEGFVKEEEDR,4.05
22,YQLGEEALLKFREDEGFVDEEEDR,4.76
23,YQLGEEFLLKFREDEGFVREEEDR,4.43
24,YQLGEETLLKFREDEGFVREEEDR,4.95
25,YQLGEEHLLKFREDEGFVREEEDR,4.56

row,Variant,protein stability index
1,YQLGEEYLLKFREDEGFVREEEDR,4.27
2,YQLGEEGLLKFREDEGFVREEEDR,4.64
3,YQLGEEVLLKFREDEGFVREEEDR,4.33
4,YQLGEEELLKFREDEGFVREEEDR,4.38
5,YQLGEESLLKFREDEGFVREEEDR,4.52
6,YQLGEEALLKFREDEGFVRAEEDR,3.63
7,YQLGEEALLKFREDEGFVRNEEDR,4.61
8,YQLGEEALLKFREDEGFVRCEEDR,4.05
9,YQLGEEALLKFREDEGFVRTEEDR,4.56
10,YQLGEEALLKFREDEGFVRREEDR,4.1
11,YQLGEEALLKFREDEGFVRFEEDR,3.64
12,YQLGEEALLFFREDEGFVREEEDR,1.64
13,YQLGEEALLWFREDEGFVREEEDR,2.25
14,YQLGEEALLAFREDEGFVREEEDR,4.01
15,YQLGEEALLQFREDEGFVREEEDR,4.83
16,YQLGEEALLYFREDEGFVREEEDR,3.94
17,YQLGEEALLDFREDEGFVREEEDR,5.55
18,YQLGEEALLTFREDEGFVREEEDR,4.57
19,YQLGEEALLRFREDEGFVREEEDR,4.09
20,YQLCEEALLKFREDEGFVREEEDR,4.51
21,YQLWEEALLKFREDEGFVREEEDR,4.4
22,YQLIEEALLKFREDEGFVREEEDR,4.83
23,YQLQEEALLKFREDEGFVREEEDR,5.08
24,YQLMEEALLKFREDEGFVREEEDR,5.27
25,YQLEEEALLKFREDEGFVREEEDR,5.77

row,Variant,protein stability index
1,YQLLEEALLKFREDEGFVREEEDR,4.41
2,YQAGEEALLKFREDEGFVREEEDR,5.22
3,YQKGEEALLKFREDEGFVREEEDR,5.02
4,YQTGEEALLKFREDEGFVREEEDR,5.31
5,YQCGEEALLKFREDEGFVREEEDR,4.38
6,YQHGEEALLKFREDEGFVREEEDR,5.22
7,YQFGEEALLKFREDEGFVREEEDR,4.7
8,YQDGEEALLKFREDEGFVREEEDR,5.85
9,YQMGEEALLKFREDEGFVREEEDR,3.76
10,QQLGEEALLKFREDEGFVREEEDR,5.41
11,SQLGEEALLKFREDEGFVREEEDR,5.53
12,RQLGEEALLKFREDEGFVREEEDR,5.81
13,FQLGEEALLKFREDEGFVREEEDR,4.45
14,NQLGEEALLKFREDEGFVREEEDR,5.67
15,LQLGEEALLKFREDEGFVREEEDR,4.96
16,GQLGEEALLKFREDEGFVREEEDR,5.95
17,KQLGEEALLKFREDEGFVREEEDR,5.6
18,WQLGEEALLKFREDEGFVREEEDR,5.25
19,VQLGEEALLKFREDEGFVREEEDR,5.58
20,YQLGEEALLKFREDEGFVREEYDR,3.58
21,YQLGEEALLKFREDEGFVREEDDR,4.65
22,YQLGEEALLKFREDEGFVREEKDR,3.99
23,YQLGEEALLKFREDEGFVREESDR,4.02
24,YQLGEEALLKFREDEGFVREEHDR,4.37
25,YQLGEEALLKFREDEGFVREELDR,3.99

row,Variant,protein stability index
1,YQLGEEALLKFREDEGFVREEFDR,3.82
2,YQLGEEALLKFREDEGFVREEPDR,4.16
3,YQLGEEALLKFREDENFVREEEDR,4.47
4,YQLGEEALLKFREDEEFVREEEDR,4.84
5,YQLGEEALLKFREDEKFVREEEDR,3.93
6,YQLGEEALLKFREDEYFVREEEDR,4.04
7,YQLGEEALLKFREDEAFVREEEDR,4.65
8,YQLGEEALLKFREDECFVREEEDR,4.83
9,YQLGEEALLKFREIEGFVREEEDR,4
10,YQLGEEALLKFREKEGFVREEEDR,3.45
11,YQLGEEALLKFRENEGFVREEEDR,3.98
12,YQLGEEALLKFREQEGFVREEEDR,3.88
13,YQLGEEALLKFRIDEGFVREEEDR,3.32
14,YQLGEEALLKFRQDEGFVREEEDR,4.3
15,YQLGEEALLKFRDDEGFVREEEDR,4.11
16,YQLGEEALLKFRKDEGFVREEEDR,4
17,YQLGEEALLKFREDEGFMREEEDR,4.58
18,YQLGEEALLKFREDEGFNREEEDR,4.82
19,YQLGEEALLKFREDEGGVREEEDR,4.01
20,YQLGEEALLKFREDEGVVREEEDR,4.53
21,YQLGEEALLKFREDEGCVREEEDR,4.88
22,YQLGEEALLKFREDEGWVREEEDR,4.59
23,YQLGEEALLKFREDEGQVREEEDR,4.5
24,YQLGEEALLKFREDEGKVREEEDR,4.51
25,YQLGEEALLKFREDEGAVREEEDR,4.78
